In the RNAGym collection of RNA variant scans (doi:10.1093/molbev/msab373):

B1: Azoarcus group I ribozyme (parent)
chain: GUGCCUUGCGCCGGGAAACCACGCAAGGGAUGGUGUCAAAUUCGGCGAAACCUAAGCGCCCGCCCGGGCGUAUGGCAACGCCGAGCCAAGCUUCGGCGCCUGCGCCGAUGAAGGUGUAGAGACUAGACGGCACCCACCUAAGGCAAACGCUAUGGUGAAGGCAUAGUCCAGGGAGUGGCGAAAGUCACACAAACCGG

Variants of: B1
Experiment: reverse-splicing fitness (ratio to wild type); higher = more active; in vitro selection; Mg2+ level not given
Outline: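 An in vitro group I ribozyme library with randomized positions was T7-transcribed and gel-purified. In triplicate, 10 pmol RNA in EPPS pH 7.5 was reacted with 50 pmoles of a 30-nt RNA substrate for 1 h at 37 °C across several added MgCl2 levels (1–48 mM), then stopped with EDTA. Products were reverse transcribed from a substrate-complementary primer, PCR-amplified and sequenced (HiSeq 4000). Fitness is a variant's read proportion after selection over that before, normalised to wild type.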

Going from C82A A111U A120G A145G C150A C169U U176C to C82A A111U A120G A145G C150A C169U U176G, the reverse-splicing fitness falls from 0.0167 to 0.0069.

Compared with C82A A111U A120G A145G C150A U176A, C82A A111U A120G A145G C150A U176C is higher in reverse-splicing fitness: 0.0111 for the first, 0.0209 for the second.

Going from C82A A111U A120G A145G C150A U176G to C82A A111U A120G A145G C150G, the reverse-splicing fitness falls from 0.00816 to 0.00699.

First: C82A A111U A120G A145G C150G C169A
Second: C82A A111U A120G A145G C150G C169A U176A
The reverse-splicing fitness of the first is lower: 0.0092 for the first, 0.0132 for the second.

Compared with C82A A111U A120G A145G C150G C169A U176C, C82A A111U A120G A145G C150G C169A U176G is lower in reverse-splicing fitness: 0.0133 for the first, 0.00821 for the second.

Going from C82A A111U A120G A145G C150G C169G to C82A A111U A120G A145G C150G C169G U176A, the reverse-splicing fitness rises from 0.00797 to 0.0109.

First: C82A A111U A120G A145G C150G C169G U176C
Second: C82A A111U A120G A145G C150G C169G U176G
The reverse-splicing fitness of the first is higher: 0.0107 for the first, 0.00619 for the second.

Compared with C82A A111U A120G A145G C150G C169U, C82A A111U A120G A145G C150G C169U U176A is higher in reverse-splicing fitness: 0.00901 for the first, 0.0121 for the second.

Compared with C82A A111U A120G A145G C150G C169U U176C, C82A A111U A120G A145G C150G C169U U176G is lower in reverse-splicing fitness: 0.013 for the first, 0.00707 for the second.

Going from C82A A111U A120G A145G C150G U176A to C82A A111U A120G A145G C150G U176C, the reverse-splicing fitness rises from 0.00704 to 0.0105.

First: C82A A111U A120G A145G C150G U176G
Second: C82A A111U A120G A145G C150U
The reverse-splicing fitness of the first is lower: 0.00604 for the first, 0.0133 for the second.

Going from C82A A111U A120G A145G C150U C169A to C82A A111U A120G A145G C150U C169A U176A, the reverse-splicing fitness rises from 0.0106 to 0.0144.

Compared with C82A A111U A120G A145G C150U C169A U176C, C82A A111U A120G A145G C150U C169A U176G is lower in reverse-splicing fitness: 0.0165 for the first, 0.00668 for the second.

First: C82A A111U A120G A145G C150U C169G
Second: C82A A111U A120G A145G C150U C169G U176A
The reverse-splicing fitness of the first is lower: 0.0105 for the first, 0.0133 for the second.

First: C82A A111U A120G A145G C150U C169G U176C
Second: C82A A111U A120G A145G C150U C169G U176G
The reverse-splicing fitness of the first is higher: 0.0178 for the first, 0.00517 for the second.

Compared with C82A A111U A120G A145G C150U C169U, C82A A111U A120G A145G C150U C169U U176A is higher in reverse-splicing fitness: 0.0104 for the first, 0.0181 for the second.

Going from C82A A111U A120G A145G C150U C169U U176C to C82A A111U A120G A145G C150U C169U U176G, the reverse-splicing fitness falls from 0.0156 to 0.00618.

Going from C82A A111U A120G A145G C150U U176A to C82A A111U A120G A145G C150U U176C, the reverse-splicing fitness rises from 0.00963 to 0.0178.

Going from C82A A111U A120G A145G C150U U176G to C82A A111U A120G A145G C169A, the reverse-splicing fitness rises from 0.00803 to 0.00997.

Compared with C82A A111U A120G A145G C169A U176A, C82A A111U A120G A145G C169A U176C is higher in reverse-splicing fitness: 0.0222 for the first, 0.0259 for the second.

Compared with C82A A111U A120G A145G C169A U176G, C82A A111U A120G A145G C169G is higher in reverse-splicing fitness: 0.00503 for the first, 0.0107 for the second.

Compared with C82A A111U A120G A145G C169G U176A, C82A A111U A120G A145G C169G U176C is higher in reverse-splicing fitness: 0.021 for the first, 0.0285 for the second.

Going from C82A A111U A120G A145G C169G U176G to C82A A111U A120G A145G C169U, the reverse-splicing fitness rises from 0.00424 to 0.00913.

Going from C82A A111U A120G A145G C169U U176A to C82A A111U A120G A145G C169U U176C, the reverse-splicing fitness falls from 0.0211 to 0.0167.

Compared with C82A A111U A120G A145G C169U U176G, C82A A111U A120G A145G U176A is higher in reverse-splicing fitness: 0.00504 for the first, 0.0122 for the second.

First: C82A A111U A120G A145G U176C
Second: C82A A111U A120G A145G U176G
The reverse-splicing fitness of the first is higher: 0.0211 for the first, 0.00714 for the second.

First: C82A A111U A120G A145U
Second: C82A A111U A120G A145U C150A
The reverse-splicing fitness of the first is higher: 0.0153 for the first, 0.00949 for the second.

Compared with C82A A111U A120G A145U C150A C169A, C82A A111U A120G A145U C150A C169A U176A is higher in reverse-splicing fitness: 0.00942 for the first, 0.0146 for the second.

Going from C82A A111U A120G A145U C150A C169A U176C to C82A A111U A120G A145U C150A C169A U176G, the reverse-splicing fitness falls from 0.0119 to 0.00486.

Going from C82A A111U A120G A145U C150A C169G to C82A A111U A120G A145U C150A C169G U176A, the reverse-splicing fitness rises from 0.00859 to 0.0146.

Going from C82A A111U A120G A145U C150A C169G U176C to C82A A111U A120G A145U C150A C169G U176G, the reverse-splicing fitness falls from 0.0161 to 0.00492.

Going from C82A A111U A120G A145U C150A C169U to C82A A111U A120G A145U C150A C169U U176A, the reverse-splicing fitness rises from 0.0069 to 0.0193.

Compared with C82A A111U A120G A145U C150A C169U U176C, C82A A111U A120G A145U C150A C169U U176G is lower in reverse-splicing fitness: 0.0164 for the first, 0.00491 for the second.

Going from C82A A111U A120G A145U C150A U176A to C82A A111U A120G A145U C150A U176C, the reverse-splicing fitness rises from 0.0128 to 0.0152.

Compared with C82A A111U A120G A145U C150A U176G, C82A A111U A120G A145U C150G is higher in reverse-splicing fitness: 0.00656 for the first, 0.00799 for the second.

Going from C82A A111U A120G A145U C150G C169A to C82A A111U A120G A145U C150G C169A U176A, the reverse-splicing fitness falls from 0.00884 to 0.0086.

Compared with C82A A111U A120G A145U C150G C169A U176C, C82A A111U A120G A145U C150G C169A U176G is lower in reverse-splicing fitness: 0.00995 for the first, 0.00552 for the second.

Going from C82A A111U A120G A145U C150G C169G to C82A A111U A120G A145U C150G C169G U176A, the reverse-splicing fitness falls from 0.00685 to 0.00656.

First: C82A A111U A120G A145U C150G C169G U176C
Second: C82A A111U A120G A145U C150G C169G U176G
The reverse-splicing fitness of the first is lower: 0.00476 for the first, 0.00488 for the second.

Going from C82A A111U A120G A145U C150G C169U to C82A A111U A120G A145U C150G C169U U176A, the reverse-splicing fitness rises from 0.00845 to 0.0104.

Going from C82A A111U A120G A145U C150G C169U U176C to C82A A111U A120G A145U C150G C169U U176G, the reverse-splicing fitness falls from 0.0125 to 0.00545.

In the case of C82A A111U A120G A145U C150G U176A, the reverse-splicing fitness is reported as 0.00602.
